From US20260028387A1 (published 2026)

B1: ALLDGGSEAYWRV (SEQ ID NO: 8) (peptide)
peptide: ALLDGGSEAYWRV
notes: synthetic peptide; source gene FAM83A
B2: KITEAIQYV (SEQ ID NO: 73) (peptide)
peptide: KITEAIQYV
notes: synthetic peptide; source gene RORA
B3: ILASLATSV (SEQ ID NO: 74) (peptide)
peptide: ILASLATSV
notes: synthetic peptide; source gene TUBGCP2
B4: KVADYIPQL (SEQ ID NO: 76) (peptide)
peptide: KVADYIPQL
notes: synthetic peptide; source gene GLS
B5: VLVPYEPPQV (SEQ ID NO: 77) (peptide)
peptide: VLVPYEPPQV
notes: synthetic peptide; source gene TP63
B6: KVANIIAEV (SEQ ID NO: 78) (peptide)
peptide: KVANIIAEV
notes: synthetic peptide; source gene RAP1GDS1
B7: GQDVGRYQV (SEQ ID NO: 79) (peptide)
peptide: GQDVGRYQV
notes: synthetic peptide; source gene SSR4
B8: ALQEALENA (SEQ ID NO: 80) (peptide)
peptide: ALQEALENA
notes: synthetic peptide; source gene NUP155
B9: AVLPHVDQV (SEQ ID NO: 81) (peptide)
peptide: AVLPHVDQV
notes: synthetic peptide; source gene KIAA0947
B10: HLLGHLEQA (SEQ ID NO: 82) (peptide)
peptide: HLLGHLEQA
notes: synthetic peptide; source gene PRDM15
B11: ALADGVVSQA (SEQ ID NO: 83) (peptide)
peptide: ALADGVVSQA
notes: synthetic peptide; source gene GPKOW
B12: HLIAEIHTA (SEQ ID NO: 9) (peptide)
peptide: HLIAEIHTA
notes: synthetic peptide; source gene PTHLH; also called PTHL-001
B13: SLAESLDQA (SEQ ID NO: 84) (peptide)
peptide: SLAESLDQA
notes: synthetic peptide; source gene DIS3
B14: NIIELVHQV (SEQ ID NO: 85) (peptide)
peptide: NIIELVHQV
notes: synthetic peptide; source gene SYK
B15: FLDNGPKTI (SEQ ID NO: 87) (peptide)
peptide: FLDNGPKTI
notes: synthetic peptide; source gene EIF4G2
B16: SLADSLYNL (SEQ ID NO: 89) (peptide)
peptide: SLADSLYNL
notes: synthetic peptide; source gene CAMSAP2
B17: SIYEYYHAL (SEQ ID NO: 90) (peptide)
peptide: SIYEYYHAL
notes: synthetic peptide; source gene HIF1A
B18: KLIDDVHRL (SEQ ID NO: 91) (peptide)
peptide: KLIDDVHRL
notes: synthetic peptide; source gene SRPR
B19: SILRHVAEV (SEQ ID NO: 92) (peptide)
peptide: SILRHVAEV
notes: synthetic peptide; source gene EIF2S1
B20: VLINTSVTL (SEQ ID NO: 93) (peptide)
peptide: VLINTSVTL
notes: synthetic peptide; source gene ZNF292
B21: SLDENSDQQV (SEQ ID NO: 10) (peptide)
peptide: SLDENSDQQV
notes: synthetic peptide; source gene S100A2

biological target: T1, HLA-A*02:01 (peptide-receptive MHC class I molecule of the UV-ligand exchange assay) (human); assay: UV-ligand exchange, anti-b2m ELISA; peptide exchange yield grade (>=10% = +; >=20% = ++; >=50 = +++; >=75% = ++++)
T1 construct: MHC monomer first loaded with a UV-sensitive peptide (not identified) that is cleaved by UV light and exchanged for the test peptide; captured on streptavidin plates
Source text: Candidate peptides for T cell based therapies according to the present invention were further tested for their MHC binding capacity (affinity). The individual peptide-MHC complexes were produced by UV-ligand exchange, where a UV-sensitive peptide is cleaved upon UV-irradiation, and exchanged with the peptide of interest as analyzed. Only peptide candidates that can effectively bind and stabilize the peptide-receptive MHC molecules prevent dissociation of the MHC complexes. To determine the yield of the exchange reaction, an ELISA was performed based on the detection of the light chain (β2m) of stabilized MHC complexes. The assay was performed as generally described in Rodenko et al. (Rodenko et al., 2006).
96 well MAXISorp plates (NUNC) were coated aver night with 2 ug/ml streptavidin in PBS at room temperature, washed 4× and blocked for 1 h at 37° C. in 2% BSA containing blocking buffer. Refolded HLA-A*02:01/MLA-001 monomers served as standards, covering the range of 15-500 ng/ml. Peptide-MHC monomers of the UV-exchange reaction were diluted 100 fold in blocking buffer. Samples were incubated for 1 h at 37° C., washed four times, incubated with 2 ug/ml HRP conjugated anti-02m for 1 h at 37° C., washed again and detected with TMB solution that is stopped with […]. Absorption was measured at 450 nm. Candidate peptides that show a high exchange yield (preferably higher than 50%, most preferred higher than 75%) are generally preferred for a generation and production of antibodies or fragments thereof, and/or T cell receptors or fragments thereof, as they show sufficient avidity to the MHC molecules and prevent dissociation of the MHC complexes.

Row | Binder | peptide exchange yield [%]
1 | B1 | 50 to 75
2 | B2 | 50 to 75
3 | B3 | 50 to 75
4 | B4 | 50 to 75
5 | B5 | 20 to 50
6 | B6 | 20 to 50
7 | B7 | 20 to 50
8 | B8 | 20 to 50
9 | B9 | 50 to 75
10 | B10 | 50 to 75
11 | B11 | 50 to 75
12 | B12 | 50 to 75
13 | B13 | 50 to 75
14 | B14 | ≥ 75
15 | B15 | 50 to 75
16 | B16 | 20 to 50
17 | B17 | 50 to 75
18 | B18 | ≥ 75
19 | B19 | 20 to 50
20 | B20 | 50 to 75
21 | B21 | 50 to 75
